Test results taken from the domain aggregation screens of Martell et al. (2025).

Assay: soluble fraction after stress (log2 fold change); higher = more stays soluble; pooled small domains, quantitative proteomics
Conditions: stress: 75 degC
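Further: 20 min heating vs room temperature control held 20 min.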

Sequence	soluble fraction (log2)
HMGIAERKEKQKLEIRNAILEASRKLIVEEGFEKVTMRKIADLIEYSPTTVYLYFKDKNEILFHLHQ	-1.54
HMGIDVSAFSDTALEVLRLQAAGYTTREIAQQLHITQRTVKYHASENYRKLDARNLVDAVQIAQSLHI	-1.5
HMGIEIKLLMSFMTDSGRKVSLFVTDPREDVTETEIKQVMDLIIEKNIFAPNGEDIVSAKEAKIVQT	-1.35
HMGIERTNADTSFSVNVYGKELIITSNKPLVVNIYAIDGTLVRTEQVTIGVNTVSGLPSGIYVVGQQKVVI	-1.1
HMGIIVDMSKIKQMLQLSEAGHSNRKIALELGINKETVNNYMQLIRNGRLDIRQLLKMDDPELERRFHA	-0.965
HMGIKLSDRQMQIVEIVKSQQPITSEQVAERLNLTRAALRSDLSILTMAGILEARPKVGYSLTGR	-1.97
HMGILPDDVKLNIKEAKKIGFPIMLKAIHGGGGRGMMIVQSEDEFADAMKITKTEAKNSFGNGDLYFEKFF	0.408
HMGITRQQALQQINQSASPKKILNASLGKRGSEFVWDIGYLSKSGKLNYVTYSFRSGEQLNAIKN	-1.03
HMGIVAGGTQSIATLRAIDTTDAQLYPDKILINVEDAGLYRLDRQSTATDDGNQVIKPTVGVGRWLKMTS	-0.15
HMGIVVDGTMTLEGVAERYGMSVGELARVIGVPPEYSNERLGRLRKSYEFEMDDIRIYIIQKQ	-1.54
HMGKAYMVPDVKNKSVNQAQLLLADKHMNGVVVDSSYVKELPAGIVLDQTPVGGMKVKEGRTVYLTINSD	0.156
HMGKDIYLTSGWVEKFDELNEFSNSVDNYDRLNQFGMYENAIIGDTGVIKITDEMIFDLYEKIQVPVEAGP	-0.0582
HMGKEDLTAAIKKMTLNDKLDIHKIVANFQTNDSEEVITAVKWLMENNYLLKIKNNYTWNTKEK	-0.901
HMGKHYLLKDDNGTITIYKILEDGTQEVYEKTEISTTYLPQTDNIGIKQGIRVNGDEALNELIENF	-0.0623
HMGKKGPELSENEKSIFSILSKSGSMDLTTLKEASGLSNKQWDKGIKGLGKHGLTKVIKTEDALLVEVV	0.0471
HMGKKYVPGMAVKLSAVPLYAASTSKVPSTHVTGTYYLWDDEVVRGRLRITNLKSRVGISGQVTGWIDKDR	-1.95
HMGKNIQAIRYKNNMTQDQVVAKLNLMGISITKSTYAKLETNRMNIKASELVALAKLFHTDINAFFSG	-3.12
HMGKNYYEILGITKSASEEQVRKAFRGLAMEWHPDRNRSADSEERFKEINEAYQVLIDPKKRQMYDQYGR	0.394
HMGKPSSEELEALGRRTLEENVDVVEEILGGRDPKGKKIKYLEGLMMRALRGQETPEAVRRTLEELIFK	-0.132
HMGKRGKEMQTAVLAILRASDRPYSAYELLESLKDIYPKIAPPTVYRALAALTQRGQIRRLESLNAFI	-0.221
HMGKRKDFTYTGNYFSEYKNQTFPSLSSFLKLVGKYENYGTIKRRVRFGWDIDEAILRENIN	-1.94
HMGKSKAAQSSLVRSIMHQISDKNRGPMPLSEIIDRASIQSIDEAIVRSLVSRMKEQGEIYEPSLGTYEF	-0.105
HMGKTIIQLATDYLIKNMQPKSLHDIESYVLTRKKIKKSSIGAILLSKPNIFGRTEDGLFGLRIWNNFQYT	-1.37

Sequence	soluble fraction (log2)
HMGKTRSTDRTRRAILDAASDLMGKHGTSVSLARIAEAAGMSKGGLLHHFPSRNDLIRALGED	0.011
HMGKVNTRNRNEGKFYKNGKKKPANWEYRFEAAPVNGKRQQISDAGYPTEKAAYEAGIAAYEKYNSAGSVN	-0.0957
HMGKVTILSNPVKDALVIMGLHNAETIDVRLFDNTGRLVMQGSQSRMDISSLSPGLYILQVNGKILKVIK	-3.2
HMGLASEVKTEDVLNEEKYDFEPDLIGNNNEAIYQNKQTGSYVLFDRNQNKVTKVLSAGEVLNHSKYNE	-0.138
HMGLDQNTLDRVDDINDTLATGIEIGPETRGTIEELNETLANGLKAGFDEETLARVDELLRVVEDGLK	0.0586
HMGLGQRIKARREALGLSQARLGEAVGVSLQAVSNWERDEYLPDTARLPLIARALGLTPGQLME	-0.182
HMGLKDTEVYMPDVRGLIEEEAQTKLKASFLTMKVSYTSSDEVKKGYVISQAPSADSVVLKGASVTVIVS	-2.56
HMGLLVPELTAEENVSLAAMIAGVPRQQARSISADLLNRLGLGQMLDRRMGEMSGGQAQRVAIAPIYGKF	-0.408
HMGLNVSYRMDGENVVETIIFSGATMIRTVTPTGTMTIKTIENGSTSTAKVNADYSVYKKIYEAQY	-2.69
HMGLPLETVVTHATKLEIVRDGRVSGSIGLSAGVKVDVIALEGDNLQVRYRSLSGRVPVAHTGLAALA	-1.58
HMGLPPIATGVNDNMSFSQAFAAARAEVGAGGAFEWHGRVYGTYYKNEWDGMSAQERHDFEIAAIRGS	-0.0369
HMGLSIPLMGAKASDIEISTLNDEVQRKLKIIVKEQGHENLQRVVPLPSEAREIQAHFINGRLHLR	0.0158
HMGLYPYSGTPADNQEANERRIFDIYSTHLERIFSDFSGATLRTKRLVLRLMQELVHSDPVRMAGILDEL	0.0962
HMGMAQELMESRLTAVFTSGKDQLAVLQRKDGSTLKLGADSKPWRIESFDGRKAVFVSADQQRVERLL	-0.342
HMGMGIGQIIKEKRTALKMTQNELAERLGVSQQSVTGWENNAAVPRESAVRGMMDIFGLSRNELFGEP	0.389
HMGMMTLGQRIAQYRKAMGISQEELGGRLGVSRQAVSKWETDAAAPDMENLLALAREFGVSVAELTETP	-0.187
HMGMTRPLFVTDPGLVRIGLVSPIFEKLGSGKLSPQLFDQVKEDPPEQTVFDGVEFARETGIDGVIGFG	0.00642
HMGMVDKSMYSRYDVGDLVKVLRGPLEGSEGHITEINTDTGTVKVETVFFGRSTVVEVDFSEIDK	-1.37
HMGNAQELQKKLEGLKGISGIEKLESDHYAEKYLVRITQPVDHKNPAAGTFTQRVIVAHVGFDRPTILVT	0.51
HMGNHRNMSAEEEAAILAPFKARAEAGELVEISEIAKAYQSAVDHPISRGQIYFVLHRHGWRKV	-1.2
HMGNIALAIARFREMIAEDPNLQPVRLHLAMALMADHQDEAARGQLEKLRSDQLPDDIRKIVDDALAALR	-1.46
HMGNIIITPNPASDFIKIISNSPIIKFGFYDIYGNTINKKFNDNSINISDLPVGMYLINLNERYFKLLK	-0.259
HMGNIITQEAAVKLAQDRVPNATLVKIEYDFDDGRPVYEGELREGRWEYEFEIDAATGEFLKWEKD	0.0823

Sequence	soluble fraction (log2)
HMGNKWKPIILYLLSNGSMRFGMLNALIPTISKKVLTNQLKELENDGLLLRQSFAEIPPRVEYSLTEKA	-2.31
HMGNLASGAYEQIKRRILSLEYLPGSILQERGLAEELGISRTPVREAIHRLSQEGWLKINSRKNIRVR	-2.32
HMGNLASRVAEQLLDKMRGDSLVPGTRLPSEIAMAKHFGVSRTVMREAIARLKADGLLETRRGSGAFVLAT	-0.973
HMGNLEENFRLKAGTEDGAWEFIRYHLGKLPVVNESNGTAIVNAERQAFLLFDRMVAFHIQRGVMVPLSAP	-0.0214
HMGNLVDGINKKLTHVRDSLPEGYTLDEFKSAFQQQYPAAYDAYEGDKGKQFDKWLGNVIQSLPKK	0.0554
HMGNNSIDIKDVIYNLVEISQLQAFDIVKHFKTWENLVNKPDELDTVIDGDSDIVDRIKYKIKSLS	0.344
HMGNQALSSVLSDIAGIGPVKTKELLRVYPDLDSLRQAPVEEVAKVKGIGRQLAQKIHDHFSSR	-0.0292
HMGNRWENLISNKMIDDVDEELLRKYIAQAHDAGRIAISYTDRKTVLNQLELTDGDRLLNAGKVLFSD	-0.392
HMGNTTEVLVATQDVKANTKIKESMFTTERVDTASLPDNYLSADSAKDVVGYYTYIGFTKGSVISKSNIAT	0.625
HMGNVRSWKGWTSAGGTRVQMRQGDSINSMARRYGVPIQAIVAVNGIDDPAKVQPGQSVIIPTYVY	-0.29
HMGNWEQQLRSWADGELATGKQDILTTAVPAFERALIETALSHTNGRKRDAAELLGWGRNTLTRKLKELGM	-0.401
HMGNYEEAILAFEAAIKIDPKNADAYRKLAEAYEKTGDEDAALRTLETGAEATGDRELADLAEKKRQELDA	-0.0773
HMGPASTGAHQLGLKPGDEVTHRAWGEGVVTSTTGEGDRAEAVVDFDAVGEKRLLLAWAPLER	0.0111
HMGPDTVDRTRRFKWVDNEVVVNFGKNAGRTLRDLAENDPGFLRWIVRSDFSDEVRTIANDALMGKFPTRK	-0.283
HMGPEAFPVPYVVDIELDRAIYVIEQSGFIVGQKLEANDNNVPRGFVISQNPPAGTKLGPESIVDLVVSS	-1.16
HMGPLDIAQLKSDFLGGDAQLARRAWDQLATKAGDEGRDFLISSLGSSDPQIRNRVALGIHES	0.069
HMGPLTMGQRIVRLRTQAGLSQDALAEQLGVSRQSVSKWETDGSVPDLDRLVKLSKVFGVTLDELVKG	-0.202
HMGPPAVGAKLQVLRQARKLSLDELSRRAGVSKSMLSQVERNLANPTVAVLWRLATALGVGLADFLSP	-3.02
HMGPRVSAGPGRHRVQPGDTLDDIAARYRVSSRDLMLVNGLRNANHVEAGQTLKLPSNAVIA	0.15
HMGPSLIRIASNPVAEVFIDGTRVGTTPFEMPADGTLKTVRLTAKDHDDLVVPLRSMKSMEIMLTLRRI	-2.54
HMGPTLTDEEEVVLNLLEKNHPVLLSELKENAGLSNKKWDKAIKGLSAHKLAKVTKTDDGLFVHLS	0.615
HMGPTPTSAQLTEAKRLRTKLDDLNPELAERLWSEHREPYTETQYQTLIEKLAAEVQSAEGEIGR	0.222
HMGPVRRDLEINGRMVPLTIREHARATRITLRIEPGGQALRLTIPPGLPTREVDSFLTRHHGWLMTKLAHI	-2.47
